Test results reported in the RNAGym collection of RNA variant scans (doi:10.7554/elife.80360).

B1: Hairpin Ribozyme (parent)
chain: GUCCUCUUUCACGUGCGCGUGAAAGAGAGAAGUGAACCAGAGAAACACACGUUGUGGUAUAUUACCUGGUA

Variants of: B1
Assay: self-cleavage, relative activity (ratio to wild type); higher = more cleavage; co-transcriptional

Variant	self-cleavage
GUACUCUUUCACGUGCGCGUGAAAGAGAGAAGUGAACCAGAGAAACACACGUUGUGGUAUUUUACCUGGUA	0.199
GUACUCUUUCACGUGCGCGUGAAAGGGAGAAGUGAACCAGAGAAACACACGUUGUGGUAUAUUACCUGGUA	0.736
GUACUCUUUCACGUGCGCGUGAAAGCGAGAAGUGAACCAGAGAAACACACGUUGUGGUAUAUUACCUGGUA	0.402
GUACUCUUUCACGUGCGCGUGAAAGAGAGAAGUGAACCAGAGAAACACACGUUGUGGUAUAUUAUCUGGUA	0.222
GUACUCUUUCACGUGCGCGUGAAAGAGAGAAGUGAACCAGAGAACCACACGUUGUGGUAUAUUACCUGGUA	0.157
GUACUCUUUCACGUGCGCGUGAAAGAGAGAAGUGAACCAGAGAAGCACACGUUGUGGUAUAUUACCUGGUA	0.197
GUACUCUUUCACGUGCGCGUGAAAGAGAGAAGUGAACCAGAGAAUCACACGUUGUGGUAUAUUACCUGGUA	0.164
GUACUCUUUCACGUGCGCGUGAAAGAGAGAAGUGAACCAGAGAGACACACGUUGUGGUAUAUUACCUGGUA	0.126
GUACUCUUUCACGUGCGCGUGAAAGAGAGAAGUGAACCAGAGAUACACACGUUGUGGUAUAUUACCUGGUA	0.148
GUACUCUUUCACGUGCGCGUGAAUGAGAGAAGUGAACCAGAGAAACACACGUUGUGGUAUAUUACCUGGUA	0.703
GUACUCUUUCACGUGCGCGUGAAAGAGAGAAGUGAACCAGACAAACACACGUUGUGGUAUAUUACCUGGUA	0.214
GGCCUCUUUCACGUGCGCGUGAAAGAGAGAAGUGAACCAGAGAAACACACGUUGUGGUAUAUUACCCGGUA	0.102
GUACUCUUUCAUGUGCGCGUGAAAGAGAGAAGUGAACCAGAGAAACACACGUUGUGGUAUAUUACCUGGUA	0.59
GGCCUCUUUCACGUGCGCGUGAAAGAGAGAAGUGAACCAGAGAAACACACGUUGUGGUAUAGUACCUGGUA	0.11
GUACUCUUUCACGUGCGCGUGAAACAGAGAAGUGAACCAGAGAAACACACGUUGUGGUAUAUUACCUGGUA	0.202
GUACUCUUUCACGUGCGAGUGAAAGAGAGAAGUGAACCAGAGAAACACACGUUGUGGUAUAUUACCUGGUA	0.634
GUACUCUUUCACGUGCGUGUGAAAGAGAGAAGUGAACCAGAGAAACACACGUUGUGGUAUAUUACCUGGUA	0.717
GUACUCUUUCACGUGCGCGGGAAAGAGAGAAGUGAACCAGAGAAACACACGUUGUGGUAUAUUACCUGGUA	0.607
GUACUCUUUCACGUGCGCGAGAAAGAGAGAAGUGAACCAGAGAAACACACGUUGUGGUAUAUUACCUGGUA	0.582
GUACUCUUUCACGUGCGCGUGAAAGAGAGAAGUGAACCAGAGAAACACACGUUGUGGUAUAUUACCUGGUU	0.517
GUACUCUUUCACGUGCGCGUGAAAGAGAGAAGUGAACCAGAGAAACACACGUUGUGGUAUAUUACCUGGUC	1.11
GUACUUUUUCACGUGCGCGUGAAAGAGAGAAGUGAACCAGAGAAACACACGUUGUGGUAUAUUACCUGGUA	0.471
GUAUUCUUUCACGUGCGCGUGAAAGAGAGAAGUGAACCAGAGAAACACACGUUGUGGUAUAUUACCUGGUA	0.42
GUAGUCUUUCACGUGCGCGUGAAAGAGAGAAGUGAACCAGAGAAACACACGUUGUGGUAUAUUACCUGGUA	0.359
GUACUCUUUCACGUGCGCGUGAAAGAGAGAAGUGAACCAGAGAAACACAGGUUGUGGUAUAUUACCUGGUA	0.199
GUACUCUUUCACGUGCGCGUGAAAGAGAGAAGUGAACCAGAGAAACGCACGUUGUGGUAUAUUACCUGGUA	0.191

Variant	self-cleavage
GUACUCUUUCACGUGCGCGUGAAAGAGAGAAGAGAACCAGAGAAACACACGUUGUGGUAUAUUACCUGGUA	0.0769
GUACUCUUUCACGUGCGCGUGAAAGAGAGAGGUGAACCAGAGAAACACACGUUGUGGUAUAUUACCUGGUA	0.425
GUACUCUUUCACGUGCGCGUGAAAGAGAGAAGUGAACCAGAGAAACACACGAUGUGGUAUAUUACCUGGUA	0.7
GUACUCUCUCACGUGCGCGUGAAAGAGAGAAGUGAACCAGAGAAACACACGUUGUGGUAUAUUACCUGGUA	0.427
GUACUCUUUCACGUGCGCGUGAAAGAGAGAAGUGAACCAGAGAAACACACGUUGUGGUAUAUUACCUGGUA	0.714
GUACUCUUUCACGUGCGCGUGAAAGAGAGAAGUGAACCAAAGAAACACACGUUGUGGUAUAUUACCUGGUA	0.23
GUACUCUUUCACGUGCGCGUGAAAGAGAGAAGUGAACCAGAGAAACAGACGUUGUGGUAUAUUACCUGGUA	0.158
GUACUCUUUCACGUGCGCGUGAAAGAGAGAAGUGAACCAGAGAAACAUACGUUGUGGUAUAUUACCUGGUA	0.112
GUACUCUUUCACGUGCGCGUGAAAGAGCGAAGUGAACCAGAGAAACACACGUUGUGGUAUAUUACCUGGUA	0.648
GUACUCUUUCACGUGCGCGUGAAAGAGGGAAGUGAACCAGAGAAACACACGUUGUGGUAUAUUACCUGGUA	0.453
GUACUCUUUCACGUGCGCGUGAAAGAGAGAAGUGGACCAGAGAAACACACGUUGUGGUAUAUUACCUGGUA	0.897
GUACUCUUUCACGUGCGCGUGAAAGAGAGAAGUGUACCAGAGAAACACACGUUGUGGUAUAUUACCUGGUA	0.479
GUACUCUUUUACGUGCGCGUGAAAGAGAGAAGUGAACCAGAGAAACACACGUUGUGGUAUAUUACCUGGUA	0.595
GUACUCUUUCACGUGCGCGUGAAAGAGAGAAGUGAACCAGAGAAACACACGUUGUGGUAUAUUACCUGCUA	0.342
GUACUCCUUCACGUGCGCGUGAAAGAGAGAAGUGAACCAGAGAAACACACGUUGUGGUAUAUUACCUGGUA	0.621
GUACUCUUUCACGUGCGCGUGAAAGAGAGAAGUGAACCCGAGAAACACACGUUGUGGUAUAUUACCUGGUA	0.328
GUACUCUUUCACGUGCGCGUGAAAGAGAGAAGUGAACCGGAGAAACACACGUUGUGGUAUAUUACCUGGUA	0.192
GUACUCUUUCACGUGCGCGUGAAAGAGAGAAGUGAACCUGAGAAACACACGUUGUGGUAUAUUACCUGGUA	0.252
GUACUCUUUCACGUGCGCGUGAAAGAGAGAAGUGAACCAGAGAAACACACGUGGUGGUAUAUUACCUGGUA	0.613
GUACUCUUUCACGUGCGCGUGAAAGAGAGAAGUGAACCAGAGAAACACACGUUGUGGUGUAUUACCUGGUA	0.0686
GUACUCUUUCACGUGCGCGUGAAAGAGAGAAGUGAACCAGAGAAACACACGUUGUGGUCUAUUACCUGGUA	0.121
GUACUCUUUCACGUGCGCGUGAAAGAGAGAAGUGAACCAGAGAAACACACGUUGUGGUAUAUUGCCUGGUA	0.54
GUACUCUUUCACGUGCGCGUGAAAGAGAGAAGUGAACCAGAGAAACACACGUUGUGGUAUAUUCCCUGGUA	0.197
GUACUCUUUCACGUGCGCGUGAAAGAGAGAAGUGAAACAGAGAAACACACGUUGUGGUAUAUUACCUGGUA	0.217
GUACUCUUUCACGUGCGCGUGAAAGAGAGAAGUCAACCAGAGAAACACACGUUGUGGUAUAUUACCUGGUA	0.984
GUACUCUUUCACGUGCGCGUGAAAGAGAGAAGUGAACCAGAGAAACACACGUUAUGGUAUAUUACCUGGUA	0.351

Variant	self-cleavage
GUACUCUUUCACGUGCGCGUGAAAGAGAGAAGUGAACCAGAGAAACACACGUUCUGGUAUAUUACCUGGUA	0.206
GUACUCUUUCACGUGCGCGUGAAAGAGAGAAGUGAACCAGAGAAACACACUUUGUGGUAUAUUACCUGGUA	0.792
GUACUCUUUCACGUGCGCGUGAAAGAGAGAAGUGACCCAGAGAAACACACGUUGUGGUAUAUUACCUGGUA	0.497
GUACUCUUUCACGUGCGCGUGAAAGAGAGAAGUGAACCAGAGAAACACACGUUGUGCUAUAUUACCUGGUA	0.169
GUACUCUUUCACGUGCUCGUGAAAGAGAGAAGUGAACCAGAGAAACACACGUUGUGGUAUAUUACCUGGUA	0.571
GUACUCUUGCACGUGCGCGUGAAAGAGAGAAGUGAACCAGAGAAACACACGUUGUGGUAUAUUACCUGGUA	0.576
GUACUCUUCCACGUGCGCGUGAAAGAGAGAAGUGAACCAGAGAAACACACGUUGUGGUAUAUUACCUGGUA	0.532
GUACUCUUACACGUGCGCGUGAAAGAGAGAAGUGAACCAGAGAAACACACGUUGUGGUAUAUUACCUGGUA	0.401
GUACUCUUUCACGUGCGCGUGAAAGAGAGGAGUGAACCAGAGAAACACACGUUGUGGUAUAUUACCUGGUA	0.146
GUACUCUUUCACGUGCGCGUGAAAGAGAGCAGUGAACCAGAGAAACACACGUUGUGGUAUAUUACCUGGUA	0.14
GUACUCUUUCACGUGCGCGUGAAAGAGAGAAGUGAACCAGAGAAACACCCGUUGUGGUAUAUUACCUGGUA	0.164
GUACUCUUUCACGUGCGCGUGAAAGAGAGAAGUGAACCAGAGAAACACACGUUGUAGUAUAUUACCUGGUA	0.127
GUACUCUUUCACGUGCGCGUGAAAGAGAGAAGUGAACCAGAGAAACACACGUUGUUGUAUAUUACCUGGUA	0.162
GUACUCUUUCACGUGCGCGUGAAAGAGAGAAGUGAACAAGAGAAACACACGUUGUGGUAUAUUACCUGGUA	0.215
GUACUCUUUCACGUGCGCGUGAAAGAGAGAAGUGAACCAGAGCAACACACGUUGUGGUAUAUUACCUGGUA	0.0772
GUACUCUUUCACGUGCGCGUGAAAGAGAGAAGUGAACCAGAGUAACACACGUUGUGGUAUAUUACCUGGUA	0.179
GUACACUUUCACGUGCGCGUGAAAGAGAGAAGUGAACCAGAGAAACACACGUUGUGGUAUAUUACCUGGUA	0.214
GUACUCUUUCACGUGCGCGUGAAAGAGAGAAGUGAACCAGAGAAAUACACGUUGUGGUAUAUUACCUGGUA	0.111
GUACUCUUUCACGUGCGCGUGAAAGAGAUAAGUGAACCAGAGAAACACACGUUGUGGUAUAUUACCUGGUA	0.0763
GUACUCUUUCACGUGCGCGUGAAAGAGAGAAGUGAACCAGCGAAACACACGUUGUGGUAUAUUACCUGGUA	1.07
GUACUCUUUCACGUGCGCGUGAAAGAGAGAAGUGAACCAGUGAAACACACGUUGUGGUAUAUUACCUGGUA	1.25
GUACUCUUUCACCUGCGCGUGAAAGAGAGAAGUGAACCAGAGAAACACACGUUGUGGUAUAUUACCUGGUA	0.51
GUACUCUUUCACGGGCGCGUGAAAGAGAGAAGUGAACCAGAGAAACACACGUUGUGGUAUAUUACCUGGUA	0.623
GUACUCUUUCACGUGCGCGUGCAAGAGAGAAGUGAACCAGAGAAACACACGUUGUGGUAUAUUACCUGGUA	0.593
